B1: Lysozyme C, P61626 (parent)
chain: MKALIVLGLVLLSVTVQGKVFERCELARTLKRLGMDGYRGISLANWMCLAKWESGYNTRATNYNAGDRSTDYGIFQINSRYWCNDGKTPGAVNACHLSCSALLQDNIADAVACAKRVVRDPQGIRAWVAWRNRCQNRDVRQYVQGCGV

Values joined by “and” are separate entries in the source; they are usually repeats but may differ in a detail not shown here. Equal entries are not always repeated.

In the first series the parent is B1. As to conditions: Homo sapiens; pH 2.58; Thermal; DSC; glycine 0.05 M; reversible: yes; structure 1LZ1; whole UniProt chain shown.
As to MKALIVLGLVLLSVTVQGKVFERCELARTLKRLGMDGYRGISLANWMCLAKWESGYNTRATNYNAGDRSTDYGIFQINSRFWCNDGKTPGAVNACHLSCSALLQDNIADAVACAKRVVRDPQGIRAWVAWRNRCQNRDVRQYVQGCGV [Y81F], the Tm stood at 61.9 °C, the “heat capacity change of unfolding” value turned out to be 1.53 kcal/mol/K, the “unfolding enthalpy (calorimetric)” value stood at 106 kcal/mol and the “unfolding enthalpy (van 't Hoff)” value amounted to 112 kcal/mol.

For the variant MKALIVLGLVLLSVTVQGKVFERCELARTLKRLGMDGFRGISLANWMCLAKWESGYNTRATNYNAGDRSTDYGIFQINSRYWCNDGKTPGAVNACHLSCSALLQDNIADAVACAKRVVRDPQGIRAWVAWRNRCQNRDVRQYVQGCGV [Y38F], the Tm is 61.1 °C, the “heat capacity change of unfolding” value amounted to 1.67 kcal/mol/K, the “unfolding enthalpy (calorimetric)” value was found to be 106 kcal/mol and the “unfolding enthalpy (van 't Hoff)” value worked out at 114 kcal/mol.

Staying with this series, now noted: Homo sapiens; pH 2.7; 64.9 °C; Thermal; DSC; glycine 0.05 M; reversible: yes; structure 1LZ1; whole UniProt chain shown.
Regarding MKALIVLGLVLLSVTVQGKVFERCELARTLKRLGMDGYRGISLANWMCLAKWESGYNTRATNYNAGDRSTDYGIFQINSRFWCNDGKTPGAVNACHLSCSALLQDNIADAVACAKRVVRDPQGIRAWVAWRNRCQNRDVRQYVQGCGV [Y81F], the “ddG of mutation (higher = less stable)” value worked out at 0.24 kcal/mol and the “heat capacity change of unfolding” value came out at 1.53 kcal/mol/K.

For the variant MKALIVLGLVLLSVTVQGKVFERCELARTLKRLGMDGYRGISLANWMCLAKWESGYNTRATNYNAGDRSTDYGIFQINSRYWCNDGKTPGAVNACHLSCSALLQDNIADAVACAKRVVRDPQGIRAWVAWRNRCQNRDVRQFVQGCGV [Y142F], the “ddG of mutation (higher = less stable)” value was 0.36 kcal/mol and the “heat capacity change of unfolding” value was determined as 1.46 kcal/mol/K.

Consider MKALIVLGLVLLSVTVQGKVFERCELARTLKRLGMDGFRGISLANWMCLAKWESGYNTRATNYNAGDRSTDYGIFQINSRYWCNDGKTPGAVNACHLSCSALLQDNIADAVACAKRVVRDPQGIRAWVAWRNRCQNRDVRQYVQGCGV [Y38F], for which the “ddG of mutation (higher = less stable)” value was determined as 0.5 kcal/mol and the “heat capacity change of unfolding” value came to 1.35 kcal/mol/K.

Staying with this series, now noted: Homo sapiens; pH 2.7; Thermal; DSC; glycine 0.05 M; reversible: yes; structure 1LZ1; whole UniProt chain shown.
Take MKALIVLGLVLLSVTVQGKVFERCELARTLKRLGMDGYRGISLANWMCLAKWESGYNTRATNYNAGDRSTDYGIFQINSRFWCNDGKTPGAVNACHLSCSALLQDNIADAVACAKRVVRDPQGIRAWVAWRNRCQNRDVRQYVQGCGV [Y81F]: the Tm was 64.2 °C; the “change of melting temperature, mutant - wild type (higher = more stable)” value (shortened to “change of melting temperature, mutant”) is -0.7 °C; the “heat capacity change of unfolding” value is 1.53 kcal/mol/K; the “unfolding enthalpy (calorimetric)” value worked out at 111 kcal/mol. The “unfolding enthalpy (van 't Hoff)” value was 117 kcal/mol.

MKALIVLGLVLLSVTVQGKVFERCELARTLKRLGMDGYRGISLANWMCLAKWESGYNTRATNYNAGDRSTDYGIFQINSRYWCNDGKTPGAVNACHLSCSALLQDNIADAVACAKRVVRDPQGIRAWVAWRNRCQNRDVRQFVQGCGV [Y142F]: the Tm is 63.8 °C and 64 °C; the “change of melting temperature, mutant” value was -1.1 °C; the “heat capacity change of unfolding” value is 1.46 kcal/mol/K and 1.53 kcal/mol/K; the “unfolding enthalpy (calorimetric)” value is 114 kcal/mol and 113 kcal/mol. Also, the “unfolding enthalpy (van 't Hoff)” value was 119 kcal/mol and 118 kcal/mol.

In the case of MKALIVLGLVLLSVTVQGKVFERCELARTLKRLGMDGFRGISLANWMCLAKWESGYNTRATNYNAGDRSTDYGIFQINSRYWCNDGKTPGAVNACHLSCSALLQDNIADAVACAKRVVRDPQGIRAWVAWRNRCQNRDVRQYVQGCGV [Y38F], the Tm was 63.4 °C; the “change of melting temperature, mutant” value is -1.5 °C; the “heat capacity change of unfolding” value was determined as 1.35 kcal/mol/K; the “unfolding enthalpy (calorimetric)” value was determined as 112 kcal/mol. Besides, the “unfolding enthalpy (van 't Hoff)” value amounted to 120 kcal/mol.

The series is the same for the next values; noted with them: Homo sapiens; pH 3; Thermal; DSC; glycine 0.05 M; reversible: yes; structure 1LZ1; whole UniProt chain shown.
As for MKALIVLGLVLLSVTVQGKVFERCELARTLKRLGMDGYRGISLANWMCLAKWESGYNTRATNYNAGDRSTDYGIFQINSRFWCNDGKTPGAVNACHLSCSALLQDNIADAVACAKRVVRDPQGIRAWVAWRNRCQNRDVRQYVQGCGV [Y81F], the Tm came to 69.5 °C, the “heat capacity change of unfolding” value came out at 0.6 kcal/mol/K, the “unfolding enthalpy (calorimetric)” value was determined as 117 kcal/mol and the “unfolding enthalpy (van 't Hoff)” value was found to be 122 kcal/mol.

The series is the same for the next values; noted with them: Homo sapiens; pH 3.17; Thermal; DSC; glycine 0.05 M; reversible: yes; structure 1LZ1; whole UniProt chain shown.
As for MKALIVLGLVLLSVTVQGKVFERCELARTLKRLGMDGYRGISLANWMCLAKWESGYNTRATNYNAGDRSTDYGIFQINSRFWCNDGKTPGAVNACHLSCSALLQDNIADAVACAKRVVRDPQGIRAWVAWRNRCQNRDVRQYVQGCGV [Y81F], the Tm is 72.7 °C, the “heat capacity change of unfolding” value worked out at 0.67 kcal/mol/K, the “unfolding enthalpy (calorimetric)” value was found to be 123 kcal/mol and the “unfolding enthalpy (van 't Hoff)” value came to 129 kcal/mol.

Staying with this series, now noted: Homo sapiens; pH 2.53; Thermal; DSC; glycine 0.05 M; reversible: yes; structure 1LZ1; whole UniProt chain shown.
On to MKALIVLGLVLLSVTVQGKVFERCELARTLKRLGMDGYRGISLANWMCLAKWESGYNTRATNYNAGDRSTDYGIFQINSRYWCNDGKTPGAVNACHLSCSALLQDNIADAVACAKRVVRDPQGIRAWVAWRNRCQNRDVRQFVQGCGV [Y142F], for which the Tm was 60.8 °C, the “heat capacity change of unfolding” value came out at 1.48 kcal/mol/K, the “unfolding enthalpy (calorimetric)” value is 108 kcal/mol and the “unfolding enthalpy (van 't Hoff)” value worked out at 112 kcal/mol.

The series is the same for the next values; noted with them: Homo sapiens; pH 2.68; Thermal; DSC; glycine 0.05 M; reversible: yes; structure 1LZ1; whole UniProt chain shown.
As for MKALIVLGLVLLSVTVQGKVFERCELARTLKRLGMDGYRGISLANWMCLAKWESGYNTRATNYNAGDRSTDYGIFQINSRYWCNDGKTPGAVNACHLSCSALLQDNIADAVACAKRVVRDPQGIRAWVAWRNRCQNRDVRQFVQGCGV [Y142F], the Tm is 63.4 °C, the “heat capacity change of unfolding” value came out at 1.08 kcal/mol/K, the “unfolding enthalpy (calorimetric)” value amounted to 112 kcal/mol and the “unfolding enthalpy (van 't Hoff)” value was 116 kcal/mol.

Still in this series, the particulars now being: Homo sapiens; pH 3.06; Thermal; DSC; glycine 0.05 M; reversible: yes; structure 1LZ1; whole UniProt chain shown.
Take MKALIVLGLVLLSVTVQGKVFERCELARTLKRLGMDGYRGISLANWMCLAKWESGYNTRATNYNAGDRSTDYGIFQINSRYWCNDGKTPGAVNACHLSCSALLQDNIADAVACAKRVVRDPQGIRAWVAWRNRCQNRDVRQFVQGCGV [Y142F]: the Tm came out at 69.7 °C, the “heat capacity change of unfolding” value is 1.82 kcal/mol/K, the “unfolding enthalpy (calorimetric)” value is 121 kcal/mol and the “unfolding enthalpy (van 't Hoff)” value was 125 kcal/mol.

The series is the same for the next values; noted with them: Homo sapiens; pH 2.89; Thermal; DSC; glycine 0.05 M; reversible: yes; structure 1LZ1; whole UniProt chain shown.
For the variant MKALIVLGLVLLSVTVQGKVFERCELARTLKRLGMDGFRGISLANWMCLAKWESGYNTRATNYNAGDRSTDYGIFQINSRYWCNDGKTPGAVNACHLSCSALLQDNIADAVACAKRVVRDPQGIRAWVAWRNRCQNRDVRQYVQGCGV [Y38F], the Tm is 66.8 °C, the “heat capacity change of unfolding” value was 1.7 kcal/mol/K, the “unfolding enthalpy (calorimetric)” value is 115 kcal/mol and the “unfolding enthalpy (van 't Hoff)” value was determined as 123 kcal/mol.

The series is the same for the next values; noted with them: Homo sapiens; pH 3.18; Thermal; DSC; glycine 0.05 M; reversible: yes; structure 1LZ1; whole UniProt chain shown.
Regarding MKALIVLGLVLLSVTVQGKVFERCELARTLKRLGMDGFRGISLANWMCLAKWESGYNTRATNYNAGDRSTDYGIFQINSRYWCNDGKTPGAVNACHLSCSALLQDNIADAVACAKRVVRDPQGIRAWVAWRNRCQNRDVRQYVQGCGV [Y38F], the Tm worked out at 72 °C, the “heat capacity change of unfolding” value was 0.6 kcal/mol/K, the “unfolding enthalpy (calorimetric)” value stood at 122 kcal/mol and the “unfolding enthalpy (van 't Hoff)” value turned out to be 129 kcal/mol.

As usually defined, the Tm is the temperature at the midpoint of the melting transition.

Values taken from FireProtDB (doi:10.1021/bi980431i).
